One assay deals with PRL3 (Homo sapiens) (UniProt O75365). To be noted: cited from earlier work.
Assay [1] addresses CNNM3 CBS domain (residues 301-452) with YPet at its C-terminus (UniProt Q8NE01). Briefly: FRET competition (inhibition) assay. To be noted: CNNM3-YPet 200 nM, CyPet-PRL2 200 nM, pre-incubation 20 min at R.T., control without competitor est. 98%, n = 6, read off a plot.

By Kd is commonly meant the concentration at which binding is half-saturated.

Chain of non-fluorescence protein-tagged PRL2 (Q12974 whole entry, stated change not applied): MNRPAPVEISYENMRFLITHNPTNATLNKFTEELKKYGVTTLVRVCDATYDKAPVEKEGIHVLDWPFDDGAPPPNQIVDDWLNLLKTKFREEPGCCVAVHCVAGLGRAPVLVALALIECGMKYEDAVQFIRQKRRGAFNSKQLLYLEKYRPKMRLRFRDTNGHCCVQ
Chain of CNNM3 CBS domain (residues 301-452) with YPet at its C-terminus (Q8NE01 301-452): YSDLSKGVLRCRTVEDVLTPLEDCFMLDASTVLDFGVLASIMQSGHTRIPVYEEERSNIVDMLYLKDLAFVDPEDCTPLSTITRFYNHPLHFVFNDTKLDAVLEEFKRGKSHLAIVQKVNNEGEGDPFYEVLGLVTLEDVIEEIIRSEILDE
Chain of PRL3 (Homo sapiens) (O75365 1-170 C104E): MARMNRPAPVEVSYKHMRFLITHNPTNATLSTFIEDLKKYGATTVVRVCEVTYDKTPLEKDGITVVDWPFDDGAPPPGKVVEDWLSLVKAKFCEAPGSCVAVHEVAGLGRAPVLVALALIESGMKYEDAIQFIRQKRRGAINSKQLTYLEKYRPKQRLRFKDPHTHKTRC
Chain of CNNM3 (Q8NE01 whole entry): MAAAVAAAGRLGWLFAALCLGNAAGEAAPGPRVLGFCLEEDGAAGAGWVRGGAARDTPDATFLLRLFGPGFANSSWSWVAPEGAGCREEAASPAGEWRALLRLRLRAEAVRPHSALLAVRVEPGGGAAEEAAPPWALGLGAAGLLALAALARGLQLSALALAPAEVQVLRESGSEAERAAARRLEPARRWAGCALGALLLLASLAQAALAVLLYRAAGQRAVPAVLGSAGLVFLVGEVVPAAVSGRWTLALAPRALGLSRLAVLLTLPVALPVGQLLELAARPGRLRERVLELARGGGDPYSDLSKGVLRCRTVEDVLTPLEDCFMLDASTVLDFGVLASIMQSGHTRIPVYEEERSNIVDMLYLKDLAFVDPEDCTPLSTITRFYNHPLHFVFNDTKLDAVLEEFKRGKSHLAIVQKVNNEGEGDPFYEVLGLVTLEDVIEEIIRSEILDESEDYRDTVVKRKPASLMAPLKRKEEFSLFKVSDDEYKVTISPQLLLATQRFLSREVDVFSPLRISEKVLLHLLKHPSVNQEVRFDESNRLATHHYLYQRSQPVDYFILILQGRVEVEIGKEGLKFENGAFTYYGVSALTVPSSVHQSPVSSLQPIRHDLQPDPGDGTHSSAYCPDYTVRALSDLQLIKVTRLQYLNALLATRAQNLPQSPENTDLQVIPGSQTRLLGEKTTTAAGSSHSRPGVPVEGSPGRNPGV

Take CNNM3 (from UniProt Q8NE01): the Kd in the assay with PRL3 (Homo sapiens) is 2.8 µM.

“non-fluorescence protein-tagged PRL2 (from UniProt Q12974-1) C107E”: the response in assay [1] (1 µM untagged competitor, parent: est. 15) is 97%; in assay [1] (10 µM untagged competitor, parent: est. 11) it was 76%.

Values taken from publication PMC7393355, “A FRET-based screening method to detect potential inhibitors of the binding of CNNM3 to PRL2” (Scientific Reports, 2020).
